Consider one molecule from article PMC7069958, “Multi-level and lineage-specific interactomes of the Hox transcription factor Ubx contribute to its functional specificity”.

This series addresses mB*UbxN51A (UniProt P83949-2 1-380, N336A). Nature of the series: EMSA; 20 mM HEPES pH 7.9, 1.4 mM MgCl2, 1 mM ZnSO4, 40 mM KCl, 0.1 mM EDTA, 5% glycerol, 0.2 ug poly(dI-dC), 0.1 ug BSA, 10 mM DTT, 0.1% NP40, 30 ul, 20 min; gel 6% acrylamide 0.5x TBE at 4 C. The following applies: protein: recombinant; tags: His, myc-BirA* (N-terminal fusion); label: 5'-Cy5; blunt.

mB*UbxN51A, sequence (P83949 other isoform, or with tags, fused parts or gaps N336A): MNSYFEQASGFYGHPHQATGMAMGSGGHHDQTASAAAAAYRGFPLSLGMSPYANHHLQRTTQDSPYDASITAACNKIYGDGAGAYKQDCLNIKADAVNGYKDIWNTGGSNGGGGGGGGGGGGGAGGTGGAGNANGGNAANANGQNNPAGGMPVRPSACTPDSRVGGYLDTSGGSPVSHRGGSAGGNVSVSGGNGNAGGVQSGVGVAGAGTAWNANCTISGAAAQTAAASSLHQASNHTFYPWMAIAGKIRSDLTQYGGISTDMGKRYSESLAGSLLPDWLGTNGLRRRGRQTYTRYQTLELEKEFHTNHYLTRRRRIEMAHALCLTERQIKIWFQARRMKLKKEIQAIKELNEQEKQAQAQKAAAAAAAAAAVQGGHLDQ

B1: Ubx consensus site probe (dsDNA)
DNA 1: TTCAGAGCGAATGATTTATGACCGGTCAAG
DNA 2: CTTGACCGGTCATAAATCATTCGCTCTGAA
For B1, the binding result is “no binding”.
